Results from article PMC11633381, “Acarbose impairs gut Bacteroides growth by targeting intracellular glucosidases” (mBio, 2024).

Target: BoGH13BSus (BoSusA), periplasmic GH13 neopullulanase of the Bacteroides ovatus Sus (Bacteroides ovatus)
Assay: SEC; 0.5 mL of 10.6 mg/mL BoSusA or 8.2 mg/mL SusA on HiPrep 16/60 Sephacryl S-200 HR, 20 mM HEPES, 100 mM NaCl, pH 7.0, 0.5 mL/min; compared with BioRad gel filtration standards

stoichiometry N: 2
Substance: BoGH13BSus (BoSusA), periplasmic GH13 neopullulanase of the Bacteroides ovatus Sus (enzyme)
